{
  "source": "paper PMC8339232",
  "target": "PknF catalytic domain (cPknF) catalytic domain, 1-299 (UniProt P9WI75)",
  "conditions": "reference: non-phosphorylated cPknF; sites T173,T175",
  "data": [
    {"substance": "PknF catalytic domain (cPknF) catalytic domain, 1-299 (from UniProt P9WI75)", "values": [
      {"measurement": "other: volume fraction of dimers", "result": "stronger; reference 44"}
    ]}
  ]
}
